Settings in all cases: protein: recombinant; (HisTrap purified); label: 6-FAM on 5' end of bottom strand; blunt
Data set [1] has as its target T1, PARP2-WT (Homo sapiens, UniProt Q9UGN5-2 1-570). Nature of the data set: fluorescence polarization; 60 mM KCl, 8 mM MgCl2; FP/FRET: 50 mM Tris-HCl pH 8, 50 mM NaCl, 1 mM MgCl2, 0.1 mM EDTA, 0.1 mM TCEP, 0.01% NP-40, temperature not stated; EMSA: 20 mM Tris pH 7.5, 1 mM EDTA, 1 mM DTT, 4 C. In general terms: Fluorescence polarisation rises when a labelled molecule tumbles more slowly, as on binding a larger partner.

In data set [2] the target is T2, PARP2-QFRD (Homo sapiens, UniProt Q9UGN5-2 1-570, Q112R;F113D). The data set is described as above.
The target of data set [3] is T2, PARP2-QFRD. Nature of the data set: fluorescence polarization; 50 mM NaCl, 1 mM MgCl2; Hill 0.9; FP/FRET: 50 mM Tris-HCl pH 8, 50 mM NaCl, 1 mM MgCl2, 0.1 mM EDTA, 0.1 mM TCEP, 0.01% NP-40, temperature not stated; EMSA: 20 mM Tris pH 7.5, 1 mM EDTA, 1 mM DTT, 4 C.
The target of data set [4] is T1, PARP2-WT. Nature of the data set: fluorescence polarization; 50 mM NaCl, 1 mM MgCl2; Hill 1.2; FP/FRET: 50 mM Tris-HCl pH 8, 50 mM NaCl, 1 mM MgCl2, 0.1 mM EDTA, 0.1 mM TCEP, 0.01% NP-40, temperature not stated; EMSA: 20 mM Tris pH 7.5, 1 mM EDTA, 1 mM DTT, 4 C.

Experimental findings from paper PMC7608914, “Bridging of nucleosome-proximal DNA double-strand breaks by PARP2 enhances its interaction with HPF1” are described below.

The Kd is the equilibrium constant for the complex coming apart.

B1: p18mer_fluorescein (dsDNA)
DNA 1: GGGTTGCGGCCGCTTGGG
DNA 2: CCCAAGCGGCCGCAACCC
modifications: 5'-phosphate on top strand
Consider B1, for which the Kd is roughly 240 nM in data set [1], roughly 240 nM in data set [2], 17.1 ± 1.8 nM in data set [3] and 11.1 ± 0.4 nM in data set [4].
